Target: the molecule itself
Assay: native gel or EMSA

B1: MagKatG1, mesophilic catalase–peroxidase from Magnaporthe oryzae (enzyme)
chain: MGECPLRTANVAGGGTRNRDWWPNTLKLNILRQHTEATNPYDPNFDYAEAFKSLDYEGLKKDLRALMTDSQEYWPADFGHYGGLFVRMAWHSAGTYRVMDGRGGGGQGQQRFAPLNSWPDNVSLDKARRLLWPIKQKYGNKISWADLMLLTGNVALEDMGFKTFGFAGGRPDTWEADESTYWGGETTWLGNEVRYSSGNEGHKESGVIDGSESKKGHKDIHTRDLEKPVSAAHMGLIYVNPEGPDGIPDPVAAARDIRTTFSRMAMNDEETVALIAGGHTVGKTHGAAPSDNVGPEPEAAPIENQGLGWSNKHGSGKGPDTITSGLEVIWTKEPAKFTMNYLEYLFKYEWELTKSPAGANQWVAKNAEEFIPDAFDPSKKHKPRMLTTDLSLRFDPEYEKISRRFLENPEQFKDAFARAWFKLLHRDMGPRSRWLGPEVPKETLLWEDPIPTPDHPIIDGSDVDSLKKAILATGVAPSKLIQTAWASASTFRGGDKRGGANGARIRLEPQNKWEVNNPQQLAEVLKALEGVKADFEKSGKKVSIADLIVLAGVAAVEQAAGVPVPFTPGRGDATQEQTDVESFTHLEPAADAFRNYGKGTSRVTTEQIMVDRAQQLTLTAPELTVLVGGLRVLGANYDGSSHGVWTDKPGKLTNDFFVTLLDPYTSWKSVDGEVFEGTNSKSGKKLTGTRADLVFGSHSELRALAEVYGSADGQQKFTKDFVAAWDKVMNLDRFDVRRGIYDETRLKSKL
notes: also called Magnaporthe oryzae katG
stoichiometry N: 2

Source: publication PMC10376177, “Comparison of Fungal Thermophilic and Mesophilic Catalase–Peroxidases for Their Antioxidative Properties” (Antioxidants, 2023)
